The labels stand for the following.
T1: IL-2 receptor βγ complex (human, UniProt P14784 27-551; P31785 23-369)
T1 sequence (looked up) 1: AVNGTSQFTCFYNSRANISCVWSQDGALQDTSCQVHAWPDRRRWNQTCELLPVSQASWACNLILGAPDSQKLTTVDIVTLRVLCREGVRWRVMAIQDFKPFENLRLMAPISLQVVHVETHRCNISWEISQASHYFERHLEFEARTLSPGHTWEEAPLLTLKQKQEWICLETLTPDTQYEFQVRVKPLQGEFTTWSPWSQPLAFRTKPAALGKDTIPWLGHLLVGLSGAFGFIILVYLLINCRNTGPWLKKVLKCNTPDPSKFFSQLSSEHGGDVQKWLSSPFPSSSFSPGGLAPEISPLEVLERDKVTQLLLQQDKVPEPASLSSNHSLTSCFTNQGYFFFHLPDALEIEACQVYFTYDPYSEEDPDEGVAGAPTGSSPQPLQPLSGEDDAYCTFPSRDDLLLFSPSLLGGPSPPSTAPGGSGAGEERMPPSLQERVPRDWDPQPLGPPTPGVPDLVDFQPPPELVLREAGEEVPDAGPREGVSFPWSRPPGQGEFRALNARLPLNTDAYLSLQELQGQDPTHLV
T1 sequence (looked up) 2: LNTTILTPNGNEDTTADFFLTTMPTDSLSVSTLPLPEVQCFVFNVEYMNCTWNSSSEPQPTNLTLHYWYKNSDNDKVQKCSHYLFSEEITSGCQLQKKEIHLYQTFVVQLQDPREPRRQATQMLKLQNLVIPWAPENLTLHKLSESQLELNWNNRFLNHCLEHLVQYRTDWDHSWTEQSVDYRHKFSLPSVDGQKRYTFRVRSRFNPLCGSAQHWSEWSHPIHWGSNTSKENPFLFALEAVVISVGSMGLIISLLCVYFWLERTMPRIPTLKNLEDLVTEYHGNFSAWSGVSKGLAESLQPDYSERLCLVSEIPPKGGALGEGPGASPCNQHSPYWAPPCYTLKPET

B1: CMP-311, MMP2 cleaved molecule (ligand)
chain: APTSSSTKKTQLQLEHLLLDLQKILNGINNYKNPKLTR[Nle]L[hSer][Yn3]KF[Ygp][Nle]PKKATELKHLQCLEEELKPLEEVL[hSer]LAQSKNFHLRPRDLISNINVIVLELKGSETTF[hSer]CEYADETATIVEFLNRWITFSQSIISTLT
modifications: also: m77 after MMP2 cleavage: Lys23 side-chain branch (cleavable peptide) cut, remnant not given here
B2: CMP-314, Matriptase cleaved molecule (ligand)
chain: APTSSSTKKTQLQLEHLLLDLQKILNGINNYKNPKLTR[Nle]L[hSer]Y(9x polyethylene glycol‑azido)KFY(8x polyethylene glycol‑amino)[Nle]PKKATELKHLQCLEEELKPLEEVL[hSer]LAQSKNFHLRPRDLISNINVIVLELKGSETTF[hSer]CEYADETATIVEFLNRWITFSQSIISTLT
modifications: also: matriptase cleavage product, not given here as a sequence, Lys23 side-chain attachment remnant unknown
B3: CMP-314, uPa cleaved molecule (ligand)
chain: APTSSSTKKTQLQLEHLLLDLQKILNGINNYKNPKLTR[Nle]L[hSer]Y(9x polyethylene glycol‑azido)KFY(8x polyethylene glycol‑amino)[Nle]PKKATELKHLQCLEEELKPLEEVL[hSer]LAQSKNFHLRPRDLISNINVIVLELKGSETTF[hSer]CEYADETATIVEFLNRWITFSQSIISTLT
modifications: also: uPa cleavage product, not given here as a sequence, Lys23 side-chain attachment remnant unknown
B4: CMP-313, Matriptase cleaved molecule (ligand)
chain: APTSSSTKKTQLQLEHLLLDLQKILNGINNYKNPKLTR[Nle]L[hSer][Yn3]KF[Ygp][Nle]PKKATELKHLQCLEEELKPLEEVL[hSer]LAQSKNFHLRPRDLISNINVIVLELKGSETTF[hSer]CEYADETATIVEFLNRWITFSQSIISTLT
modifications: also: m81 after matriptase cleavage: Lys23 side-chain branch (cleavable peptide) cut, remnant not given here
B5: CMP-310, Matriptase cleaved molecule (ligand)
chain: APTSSSTKKTQLQLEHLLLDLQKILNGINNYKNPKLTR[Nle]L[hSer][Yn3]KF[Ygp][Nle]PKKATELKHLQCLEEELKPLEEVL[hSer]LAQSKNFHLRPRDLISNINVIVLELKGSETTF[hSer]CEYADETATIVEFLNRWITFSQSIISTLT
modifications: also: m73 after matriptase cleavage: Lys23 side-chain branch (cleavable peptide) cut, remnant not given here
B6: CMP-315, MMP2 cleaved molecule (ligand)
chain: APTSSSTKKTQLQLEHLLLDLQKILNGINNYKNPKLTR[Nle]L[hSer]Y(9x polyethylene glycol‑azido)KFY(8x polyethylene glycol‑amino)[Nle]PKKATELKHLQCLEEELKPLEEVL[hSer]LAQSKNFHLRPRDLISNINVIVLELKGSETTF[hSer]CEYADETATIVEFLNRWITFSQSIISTLT
modifications: also: K23 side chain attached to another sequence, m89 after MMP2 cleavage, product not given here as a sequence
B7: CMP-315, Matriptase cleaved molecule (ligand)
chain: APTSSSTKKTQLQLEHLLLDLQKILNGINNYKNPKLTR[Nle]L[hSer]Y(9x polyethylene glycol‑azido)KFY(8x polyethylene glycol‑amino)[Nle]PKKATELKHLQCLEEELKPLEEVL[hSer]LAQSKNFHLRPRDLISNINVIVLELKGSETTF[hSer]CEYADETATIVEFLNRWITFSQSIISTLT
modifications: also: matriptase cleavage product, not given here as a sequence, Lys23 side-chain attachment remnant unknown
B8: CMP-314, MMP2 cleaved molecule (ligand)
chain: APTSSSTKKTQLQLEHLLLDLQKILNGINNYKNPKLTR[Nle]L[hSer]Y(9x polyethylene glycol‑azido)KFY(8x polyethylene glycol‑amino)[Nle]PKKATELKHLQCLEEELKPLEEVL[hSer]LAQSKNFHLRPRDLISNINVIVLELKGSETTF[hSer]CEYADETATIVEFLNRWITFSQSIISTLT
modifications: also: K23 side chain attached to another sequence, m85 after MMP2 cleavage, product not given here as a sequence
B9: CMP-315, uPa cleaved molecule (ligand)
chain: APTSSSTKKTQLQLEHLLLDLQKILNGINNYKNPKLTR[Nle]L[hSer]Y(9x polyethylene glycol‑azido)KFY(8x polyethylene glycol‑amino)[Nle]PKKATELKHLQCLEEELKPLEEVL[hSer]LAQSKNFHLRPRDLISNINVIVLELKGSETTF[hSer]CEYADETATIVEFLNRWITFSQSIISTLT
modifications: also: uPa cleavage product, not given here as a sequence, Lys23 side-chain attachment remnant unknown
B10: CMP-311, uPa cleaved molecule (ligand)
chain: APTSSSTKKTQLQLEHLLLDLQKILNGINNYKNPKLTR[Nle]L[hSer][Yn3]KF[Ygp][Nle]PKKATELKHLQCLEEELKPLEEVL[hSer]LAQSKNFHLRPRDLISNINVIVLELKGSETTF[hSer]CEYADETATIVEFLNRWITFSQSIISTLT
modifications: also: m77 after uPa cleavage: Lys23 side-chain branch (cleavable peptide) cut, remnant not given here
B11: CMP-311, Matriptase cleaved molecule (ligand)
chain: APTSSSTKKTQLQLEHLLLDLQKILNGINNYKNPKLTR[Nle]L[hSer][Yn3]KF[Ygp][Nle]PKKATELKHLQCLEEELKPLEEVL[hSer]LAQSKNFHLRPRDLISNINVIVLELKGSETTF[hSer]CEYADETATIVEFLNRWITFSQSIISTLT
modifications: also: m77 after matriptase cleavage: Lys23 side-chain branch (cleavable peptide) cut, remnant not given here
B12: CMP-310, MMP2 cleaved molecule (ligand)
chain: APTSSSTKKTQLQLEHLLLDLQKILNGINNYKNPKLTR[Nle]L[hSer][Yn3]KF[Ygp][Nle]PKKATELKHLQCLEEELKPLEEVL[hSer]LAQSKNFHLRPRDLISNINVIVLELKGSETTF[hSer]CEYADETATIVEFLNRWITFSQSIISTLT
modifications: also: m73 after MMP2 cleavage: Lys23 side-chain branch (cleavable peptide) cut, remnant not given here
B13: CMP-313, MMP2 cleaved molecule (ligand)
chain: APTSSSTKKTQLQLEHLLLDLQKILNGINNYKNPKLTR[Nle]L[hSer][Yn3]KF[Ygp][Nle]PKKATELKHLQCLEEELKPLEEVL[hSer]LAQSKNFHLRPRDLISNINVIVLELKGSETTF[hSer]CEYADETATIVEFLNRWITFSQSIISTLT
modifications: also: m81 after MMP2 cleavage: Lys23 side-chain branch (cleavable peptide) cut, remnant not given here
B14: CMP-310, uPa cleaved molecule (ligand)
chain: APTSSSTKKTQLQLEHLLLDLQKILNGINNYKNPKLTR[Nle]L[hSer][Yn3]KF[Ygp][Nle]PKKATELKHLQCLEEELKPLEEVL[hSer]LAQSKNFHLRPRDLISNINVIVLELKGSETTF[hSer]CEYADETATIVEFLNRWITFSQSIISTLT
modifications: also: m73 after uPa cleavage: Lys23 side-chain branch (cleavable peptide) cut, remnant not given here
B15: CMP-313, uPa cleaved molecule (ligand)
chain: APTSSSTKKTQLQLEHLLLDLQKILNGINNYKNPKLTR[Nle]L[hSer]Y(9x polyethylene glycol‑azido)KFY(8x polyethylene glycol‑amino)[Nle]PKKATELKHLQCLEEELKPLEEVL[hSer]LAQSKNFHLRPRDLISNINVIVLELKGSETTF[hSer]CEYADETATIVEFLNRWITFSQSIISTLT
modifications: also: K23 side chain attached to another sequence, m81 after uPa cleavage, product not given here as a sequence

[ ]: non-standard residue; d: D form. 8x polyethylene glycol‑amino = O-(8x polyethylene glycol-amino)-tyrosine, SITE 45; 9x polyethylene glycol‑azido = O-(9x polyethylene glycol-azido)-tyrosine, SITE 42; Ygp = O-(8x polyethylene glycol-amino)-tyrosine (Tyr, amino-capped PEG8); Yn3 = O-(9x polyethylene glycol-azido)-tyrosine (Tyr, azide-capped PEG9); hSer = N[C@@H](CCO)C(=O)O; Nle = CCCC[C@H](N)C(=O)O

The target of this test is T1, IL-2 receptor βγ complex. Nature of the test: cell-based or functional assay.
Regarding B1, the “Average EC50, pSTAT5 Assay in NK cells” value stood at 0.073 nM.

For the molecule B2, the “Average EC50, pSTAT5 Assay in NK cells” value was found to be 0.117 nM.

Consider B3, for which the “Average EC50, pSTAT5 Assay in NK cells” value was determined as 0.065 nM.

B4: the “Average EC50, pSTAT5 Assay in NK cells” value was 0.714 nM.

As for B5, the “Average EC50, pSTAT5 Assay in NK cells” value amounted to 6.9 nM.

Take B6: the “Average EC50, pSTAT5 Assay in NK cells” value was determined as 0.369 nM.

As to B7, the “Average EC50, pSTAT5 Assay in NK cells” value was 0.387 nM.

For B8, the “Average EC50, pSTAT5 Assay in NK cells” value worked out at 0.04 nM.

As for B9, the “Average EC50, pSTAT5 Assay in NK cells” value was 0.335 nM.

With B10, the “Average EC50, pSTAT5 Assay in NK cells” value amounted to 0.548 nM.

For B11, the “Average EC50, pSTAT5 Assay in NK cells” value turned out to be 0.512 nM.

With B12, the “Average EC50, pSTAT5 Assay in NK cells” value was 4.07 nM.

In the case of B13, the “Average EC50, pSTAT5 Assay in NK cells” value was determined as 0.035 nM.

B14: the “Average EC50, pSTAT5 Assay in NK cells” value was 6.79 nM.

As for B15, the “Average EC50, pSTAT5 Assay in NK cells” value was determined as 0.081 nM.
